# Measured values taken from IntAct's records for PubMed 19468300.
# B1: Rac GTPase-activating protein 1 (Homo sapiens), Q9H0H5 (parent)
# chain: MDTMMLNVRNLFEQLVRRVEILSEGNEVQFIQLAKDFEDFRKKWQRTDHELGKYKDLLMKAETERSALDVKLKHARNQVDVEIKRRQRAEADCEKLERQIQLIREMLMCDTSGSIQLSEEQKSALAFLNRGQPSSSNAGNKRLSTIDESGSILSDISFDKTDESLDWDSSLVKTFKLKKREKRRSTSRQFVDGPPGPVKKTRSIGSAVDQGNESIVAKTTVTVPNDGGPIEAVSTIETVPYWTRSRRKTGTLQPWNSDSTLNSRQLEPRTETDSVGTPQSNGGMRLHDFVSKTVIKPESCVPCGKRIKFGKLSLKCRDCRVVSHPECRDRCPLPCIPTLIGTPVKIGEGMLADFVSQTSPMIPSIVVHCVNEIEQRGLTETGLYRISGCDRTVKELKEKFLRVKTVPLLSKVDDIHAICSLLKDFLRNLKEPLLTFRLNRAFMEAAEITDEDNSIAAMYQAVGELPQANRDTLAFLMIHLQRVAQSPHTKMDVANLAKVFGPTIVAHAVPNPDPVTMLQDIKRQPKVVERLLSLPLEYWSQFMMVEQENIDPLHVIENSNAFSTPQTPDIKVSLLGPVTTPEHQLLKTPSSSSLSQRVRSTLTKNTPRFGSKSKSATNLGRQGNFFASPMLK
# partner: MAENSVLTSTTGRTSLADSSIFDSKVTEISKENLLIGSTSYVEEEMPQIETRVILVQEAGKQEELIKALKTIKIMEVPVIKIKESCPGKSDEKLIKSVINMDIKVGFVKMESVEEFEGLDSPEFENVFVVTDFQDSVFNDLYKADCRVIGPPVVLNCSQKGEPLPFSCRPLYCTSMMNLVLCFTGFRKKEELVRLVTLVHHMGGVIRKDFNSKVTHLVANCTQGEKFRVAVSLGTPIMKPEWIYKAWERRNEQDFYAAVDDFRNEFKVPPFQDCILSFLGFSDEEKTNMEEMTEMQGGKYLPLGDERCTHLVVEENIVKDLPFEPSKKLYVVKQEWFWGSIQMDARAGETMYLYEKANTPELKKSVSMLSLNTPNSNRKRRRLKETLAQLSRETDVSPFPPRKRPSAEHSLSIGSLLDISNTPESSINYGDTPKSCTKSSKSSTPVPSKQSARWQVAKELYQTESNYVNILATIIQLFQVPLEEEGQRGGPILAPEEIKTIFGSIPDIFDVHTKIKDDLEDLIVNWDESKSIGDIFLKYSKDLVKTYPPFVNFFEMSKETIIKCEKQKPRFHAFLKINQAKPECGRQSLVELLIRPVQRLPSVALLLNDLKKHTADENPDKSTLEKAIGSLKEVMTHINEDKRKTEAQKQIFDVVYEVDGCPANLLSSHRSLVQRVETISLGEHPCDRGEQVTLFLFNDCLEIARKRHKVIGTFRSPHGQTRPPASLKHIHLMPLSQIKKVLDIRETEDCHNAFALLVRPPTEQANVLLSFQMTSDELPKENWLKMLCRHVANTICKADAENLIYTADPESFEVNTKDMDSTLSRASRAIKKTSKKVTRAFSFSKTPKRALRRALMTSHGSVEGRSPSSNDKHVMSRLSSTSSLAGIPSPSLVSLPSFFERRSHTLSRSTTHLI
# B2: Protein ECT2 (Homo sapiens), Q9H8V3-4 (parent)
# chain: MAENSVLTSTTGRTSLADSSIFDSKVTEISKENLLIGSTSYVEEEMPQIETRVILVQEAGKQEELIKALKDIKVGFVKMESVEEFEGLDSPEFENVFVVTDFQDSVFNDLYKADCRVIGPPVVLNCSQKGEPLPFSCRPLYCTSMMNLVLCFTGFRKKEELVRLVTLVHHMGGVIRKDFNSKVTHLVANCTQGEKFRVAVSLGTPIMKPEWIYKAWERRNEQDFYAAVDDFRNEFKVPPFQDCILSFLGFSDEEKTNMEEMTEMQGGKYLPLGDERCTHLVVEENIVKDLPFEPSKKLYVVKQEWFWGSIQMDARAGETMYLYEKANTPELKKSVSMLSLNTPNSNRKRRRLKETLAQLSRETDVSPFPPRKRPSAEHSLSIGSLLDISNTPESSINYGDTPKSCTKSSKSSTPVPSKQSARWQVAKELYQTESNYVNILATIIQLFQVPLEEEGQRGGPILAPEEIKTIFGSIPDIFDVHTKIKDDLEDLIVNWDESKSIGDIFLKYSKDLVKTYPPFVNFFEMSKETIIKCEKQKPRFHAFLKINQAKPECGRQSLVELLIRPVQRLPSVALLLNDLKKHTADENPDKSTLEKAIGSLKEVMTHINEDKRKTEAQKQIFDVVYEVDGCPANLLSSHRSLVQRVETISLGEHPCDRGEQVTLFLFNDCLEIARKRHKVIGTFRSPHGQTRPPASLKHIHLMPLSQIKKVLDIRETEDCHNAFALLVRPPTEQANVLLSFQMTSDELPKENWLKMLCRHVANTICKADAENLIYTADPESFEVNTKDMDSTLSRASRAIKKTSKKVTRAFSFSKTPKRALRRALMTSHGSVEGRSPSSNDKHVMSRLSSTSSLAGIPSPSLVSLPSFFERRSHTLSRSTTHLI
# partner: B1 chain
# B3: Protein regulator of cytokinesis 1 (Homo sapiens), O43663 (parent)
# chain: MRRSEVLAEESIVCLQKALNHLREIWELIGIPEDQRLQRTEVVKKHIKELLDMMIAEEESLKERLIKSISVCQKELNTLCSELHVEPFQEEGETTILQLEKDLRTQVELMRKQKKERKQELKLLQEQDQELCEILCMPHYDIDSASVPSLEELNQFRQHVTTLRETKASRREEFVSIKRQIILCMEALDHTPDTSFERDVVCEDEDAFCLSLENIATLQKLLRQLEMQKSQNEAVCEGLRTQIRELWDRLQIPEEEREAVATIMSGSKAKVRKALQLEVDRLEELKMQNMKKVIEAIRVELVQYWDQCFYSQEQRQAFAPFCAEDYTESLLQLHDAEIVRLKNYYEVHKELFEGVQKWEETWRLFLEFERKASDPNRFTNRGGNLLKEEKQRAKLQKMLPKLEEELKARIELWEQEHSKAFMVNGQKFMEYVAEQWEMHRLEKERAKQERQLKNKKQTETEMLYGSAPRTPSKRRGLAPNTPGKARKLNTTTMSNATANSSIRPIFGGTVYHSPVSRLPPSGSKPVAASTCSGKKTPRTGRHGANKENLELNGSILSGGYPGSAPLQRNFSINSVASTYSEFAKDPSLSDSSTVGLQRELSKASKSDATSGILNSTNIQS
# Variants of: B1
# Conditions: with ect2_human ECT2, Q9H8V3
row,effect of a mutation on the interaction,Variant
1,disrupting interaction,S149A;S157A;S164A;S170A

# Variants of: B2
# Conditions: with rgap1_human RACGAP1, Q9H0H5
row,effect of a mutation on the interaction,Variant
1,disrupting interaction,K195A
2,disrupting interaction strength,T153A
3,disrupting interaction strength,T153A;K195A

# Variants of: B3
# Conditions: with plk1_human PLK1, P53350
# Sequence of plk1_human PLK1, P53350 (P53350 whole entry): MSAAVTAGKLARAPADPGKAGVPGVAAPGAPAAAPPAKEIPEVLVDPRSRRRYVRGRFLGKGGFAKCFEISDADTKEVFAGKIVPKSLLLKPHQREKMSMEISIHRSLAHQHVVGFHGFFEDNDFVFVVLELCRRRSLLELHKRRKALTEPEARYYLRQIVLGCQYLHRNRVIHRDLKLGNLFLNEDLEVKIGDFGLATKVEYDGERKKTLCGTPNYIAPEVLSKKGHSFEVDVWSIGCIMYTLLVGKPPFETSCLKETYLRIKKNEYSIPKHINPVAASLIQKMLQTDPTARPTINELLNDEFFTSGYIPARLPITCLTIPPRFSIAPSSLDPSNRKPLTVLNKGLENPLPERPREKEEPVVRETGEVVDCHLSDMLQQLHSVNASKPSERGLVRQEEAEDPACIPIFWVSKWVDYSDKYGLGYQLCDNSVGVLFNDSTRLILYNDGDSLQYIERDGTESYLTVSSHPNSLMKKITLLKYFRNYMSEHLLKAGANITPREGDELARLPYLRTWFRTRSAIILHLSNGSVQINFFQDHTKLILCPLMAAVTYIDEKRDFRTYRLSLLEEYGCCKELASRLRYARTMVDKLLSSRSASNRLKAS
row,effect of a mutation on the interaction,Variant
1,disrupting interaction strength,S615A;T616A
